Results from the RNAGym collection of RNA variant scans (doi:10.7554/elife.80360).

B1: CPEB3 Ribozyme (parent)
chain: GGGGGCCACAGCAGAAGCGUUCACGUCGCGGCCCCUGUCAGAUUCUGGUGAAUCUGCGAAUUCUGCUGU

Variants of: B1
Assay: self-cleavage, relative activity (ratio to wild type); higher = more cleavage; co-transcriptional
Variant A40U A51C has a self-cleavage of 0.564.
For A40U A51U, the self-cleavage was 0.61.
A40G C63U gave a self-cleavage of 0.915.
A40G C63G gave a self-cleavage of 0.563.
Work on A40G C63A yielded a self-cleavage of 0.689.
With A40C A42U the self-cleavage was 0.363.
For A40C A42C, the self-cleavage was 0.26.
In the case of A40C A42G, the self-cleavage is reported as 0.482.
Work on G41A A60U yielded a self-cleavage of 0.278.
For G41A A60C, the self-cleavage was 0.295.
G41A U69A showed a self-cleavage of 0.912.
Work on G41A U69G yielded a self-cleavage of 1.
Variant G41A U69C has a self-cleavage of 1.03.
For C39U G68U, the self-cleavage was 0.95.
In the case of C39U G68C, the self-cleavage is reported as 0.97.
For A40U U69G, the self-cleavage was 0.987.
In the case of A40U U69C, the self-cleavage is reported as 1.
A40U U69A showed a self-cleavage of 0.964.
For G41A U43C, the self-cleavage was 0.416.
Work on G41A U43A yielded a self-cleavage of 0.335.
A40C C63G gave a self-cleavage of 0.315.
In the case of A40C C63U, the self-cleavage is reported as 0.388.
Work on A40G G50A yielded a self-cleavage of 0.918.
A40G G50U showed a self-cleavage of 0.971.
For A40G G50C, the self-cleavage was 0.943.
In the case of C39G U64C, the self-cleavage is reported as 0.736.
In the case of C39G U64G, the self-cleavage is reported as 0.642.
Work on A40C G58C yielded a self-cleavage of 0.776.
A40C G58U gave a self-cleavage of 0.727.
C39U C63G gave a self-cleavage of 0.451.
C39U C63U showed a self-cleavage of 0.84.
C39U C63A showed a self-cleavage of 0.54.
For A40U G47C, the self-cleavage was 0.88.
C39U A59G showed a self-cleavage of 0.987.
A40C G65A showed a self-cleavage of 0.387.
In the case of A40C G65C, the self-cleavage is reported as 0.332.
With G41A U62G the self-cleavage was 0.422.
In the case of G41A U62C, the self-cleavage is reported as 0.383.
G41A U62A showed a self-cleavage of 0.474.
For A40G U44G, the self-cleavage was 0.843.
For A40G U44C, the self-cleavage was 0.485.
For C39G U53C, the self-cleavage was 0.516.
C39G U53A showed a self-cleavage of 0.538.
For C39G U53G, the self-cleavage was 0.533.
A40C U69C showed a self-cleavage of 0.965.
Work on A40C U69A yielded a self-cleavage of 0.865.
For G41C C57U, the self-cleavage was 0.329.
A40G U62C gave a self-cleavage of 0.649.
For A40U C66U, the self-cleavage was 0.729.
For A40U C66G, the self-cleavage was 0.325.
A40U C66A gave a self-cleavage of 0.397.
A40U U44G gave a self-cleavage of 0.623.
In the case of A40U U44C, the self-cleavage is reported as 0.262.
Variant A40U A60C has a self-cleavage of 0.235.
For A40U A60U, the self-cleavage was 0.41.
Variant A40C U43G has a self-cleavage of 0.281.
A40C U43C gave a self-cleavage of 0.314.
In the case of A40C U43A, the self-cleavage is reported as 0.356.
With A40C U64A the self-cleavage was 0.357.
In the case of C39U G50U, the self-cleavage is reported as 0.895.
C39U G50C gave a self-cleavage of 0.744.
C39U U67G showed a self-cleavage of 0.923.
For C39U U67A, the self-cleavage was 0.902.
C39U U67C showed a self-cleavage of 0.882.
Work on G41A G68C yielded a self-cleavage of 0.881.
G41A G68U showed a self-cleavage of 0.913.
For C39U A51U, the self-cleavage was 0.836.
Variant C39U A52U has a self-cleavage of 0.78.
For C39U A52C, the self-cleavage was 0.776.
For C39U A52G, the self-cleavage was 0.948.
With C39G G65A the self-cleavage was 0.599.
With A40G U67G the self-cleavage was 0.965.
A40G U67C gave a self-cleavage of 0.901.
With G41A U46A the self-cleavage was 0.863.
G41A U46C showed a self-cleavage of 0.706.
C39U A60U gave a self-cleavage of 0.266.
Work on C39U A60C yielded a self-cleavage of 0.341.
Variant C39U A60G has a self-cleavage of 0.667.
For G41A U44G, the self-cleavage was 0.307.
With A40U U61G the self-cleavage was 0.286.
A40C G56U showed a self-cleavage of 0.401.
Work on A40C G56C yielded a self-cleavage of 0.341.
A40C G56A gave a self-cleavage of 0.546.
For C39U U46C, the self-cleavage was 0.822.
C39U U46G showed a self-cleavage of 0.997.
With A40G U43G the self-cleavage was 0.614.
Work on A40G U43A yielded a self-cleavage of 0.809.
Variant A40G U43C has a self-cleavage of 0.764.
Work on A40U G50C yielded a self-cleavage of 0.643.
For A40U G50A, the self-cleavage was 0.731.
In the case of A40U U64G, the self-cleavage is reported as 0.598.
Variant A40U U64A has a self-cleavage of 0.435.
For G41A G56C, the self-cleavage was 0.31.
For G41A G56U, the self-cleavage was 0.307.
Variant G41A U64G has a self-cleavage of 0.501.
For G41A U64C, the self-cleavage was 0.385.
Variant A40C A60U has a self-cleavage of 0.217.
C39U U69C gave a self-cleavage of 1.04.
Work on C39U G58A yielded a self-cleavage of 0.873.
For C39U G58C, the self-cleavage was 0.946.
With C39U G58U the self-cleavage was 0.961.
In the case of G41A A42C, the self-cleavage is reported as 0.588.
G41A A42G showed a self-cleavage of 0.855.
A40U C45G gave a self-cleavage of 0.744.
In the case of A40U C45A, the self-cleavage is reported as 0.629.
In the case of A40U C45U, the self-cleavage is reported as 0.799.
With A40G A42U the self-cleavage was 0.763.
In the case of A40G A42G, the self-cleavage is reported as 0.822.
A40C C54U showed a self-cleavage of 0.523.
In the case of A40C C54A, the self-cleavage is reported as 0.244.
A40C U53A showed a self-cleavage of 0.311.
With A40C U53G the self-cleavage was 0.15.
A40C U53C showed a self-cleavage of 0.219.
C39U C57U showed a self-cleavage of 0.37.
Variant A40C G50U has a self-cleavage of 0.55.
With C39U A40G the self-cleavage was 0.813.
C39U A40C gave a self-cleavage of 0.756.
With A40U A52G the self-cleavage was 0.832.
C39U U43C showed a self-cleavage of 0.687.
In the case of A40U G48U, the self-cleavage is reported as 0.936.
Variant A40U G48C has a self-cleavage of 0.893.
A40U U49C showed a self-cleavage of 0.757.
Variant A40U U49A has a self-cleavage of 0.922.
Work on A40U U49G yielded a self-cleavage of 0.816.
A40U U53C showed a self-cleavage of 0.296.
Variant C39U U55G has a self-cleavage of 0.661.
Work on A40U G68A yielded a self-cleavage of 0.937.
For A40U G68U, the self-cleavage was 0.877.
A40U G68C showed a self-cleavage of 0.876.
For C39G U69C, the self-cleavage was 1.05.
With C39U C54A the self-cleavage was 0.526.
For C39U C54U, the self-cleavage was 0.853.
In the case of C39U C54G, the self-cleavage is reported as 0.546.
In the case of C39U G41U, the self-cleavage is reported as 0.337.
Variant C39U G41A has a self-cleavage of 0.475.
For C39G U62C, the self-cleavage was 0.658.
With C39G U62A the self-cleavage was 0.788.
In the case of C39G U62G, the self-cleavage is reported as 0.592.
A40G A60C showed a self-cleavage of 0.329.
With A40G A60U the self-cleavage was 0.486.
With A40G A60G the self-cleavage was 0.859.
For C39G U49C, the self-cleavage was 0.875.
C39G U49A gave a self-cleavage of 0.923.
In the case of A40C A52G, the self-cleavage is reported as 0.583.
C39G U43G gave a self-cleavage of 0.448.
In the case of C39G U43A, the self-cleavage is reported as 0.522.
A40U A59G showed a self-cleavage of 0.887.
Variant A40U A59U has a self-cleavage of 0.459.
Variant C39G G56U has a self-cleavage of 1.
In the case of C39G U44C, the self-cleavage is reported as 0.58.
C39G U44A showed a self-cleavage of 0.772.
For C39G U44G, the self-cleavage was 0.709.
Work on A40C G68A yielded a self-cleavage of 0.882.
In the case of G41C C63A, the self-cleavage is reported as 0.296.
A40G U53C gave a self-cleavage of 0.649.
A40G U53G showed a self-cleavage of 0.813.
A40G U53A gave a self-cleavage of 0.759.
A40G C66U showed a self-cleavage of 0.982.
Variant A40G C66A has a self-cleavage of 0.54.
For C39U A42G, the self-cleavage was 0.514.
Variant C39U A42C has a self-cleavage of 0.542.
C39U U49A gave a self-cleavage of 0.971.
For C39U U49G, the self-cleavage was 0.975.
For G41A C66G, the self-cleavage was 0.429.
A40G U69A showed a self-cleavage of 1.01.
A40G U69G showed a self-cleavage of 1.02.
For A40G U69C, the self-cleavage was 0.718.
